Measurements from the supplement of paper PMC9112550, “Optimization of the antimicrobial peptide Bac7 by deep mutational scanning” (BMC Biology, 2022).

test system: Escherichia coli TOP10; experiment: shrunken log2 fold change of peptide-encoding DNA abundance (4.5 h post-induction vs induction); higher = less antimicrobial activity (less host growth inhibition); details: time post-induction: 4.5 h; library: site-saturation at positions 5, 18, 19, 20
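Further: peptides expressed intracellularly from a pBAD plasmid library in pooled LB shake-flask culture, induced with 0.3% L-arabinose, DNA abundance read by NGS, three biological replicates, DESeq2 with apeglm shrinkage.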

| Sequence | shrunken log2 fold change |
| --- | --- |
| RRIRLRPPRLPRPRPRPTYVPRP | -0.591 |
| RRIRHRPPRLPRPRPRPRCLPRP | -0.169 |
| RRIRLRPPRLPRPRPRPGVKPRP | 0.108 |
| RRIRPRPPRLPRPRPRPTWPPRP | 0.47 |
| RRIRARPPRLPRPRPRPIRVPRP | 0.125 |
| RRIRFRPPRLPRPRPRPVKHPRP | -0.222 |
| RRIRTRPPRLPRPRPRPSWMPRP | -0.466 |
| RRIRPRPPRLPRPRPRPVRGPRP | 0.898 |
| RRIRRRPPRLPRPRPRPFELPRP | -0.249 |
| RRIRSRPPRLPRPRPRPGNWPRP | -0.0906 |
| RRIRKRPPRLPRPRPRPVYRPRP | -0.667 |
| RRIRTRPPRLPRPRPRPMRRPRP | 0.00555 |
| RRIRMRPPRLPRPRPRPNDVPRP | -0.00114 |
| RRIRSRPPRLPRPRPRPYWNPRP | 0.503 |
| RRIRERPPRLPRPRPRPNINPRP | -1.05 |
| RRIRYRPPRLPRPRPRPTILPRP | -0.521 |
| RRIRFRPPRLPRPRPRPRGSPRP | 0.432 |
| RRIRDRPPRLPRPRPRPYMEPRP | -0.000464 |
| RRIRPRPPRLPRPRPRPNQKPRP | -0.0811 |
| RRIRTRPPRLPRPRPRPHKPPRP | -0.0565 |
| RRIRTRPPRLPRPRPRPPLRPRP | 0.314 |
| RRIRVRPPRLPRPRPRPDVMPRP | -0.00879 |

| Sequence | shrunken log2 fold change |
| --- | --- |
| RRIRSRPPRLPRPRPRPTRPPRP | 0.645 |
| RRIRVRPPRLPRPRPRPDRGPRP | -0.0555 |
| RRIRFRPPRLPRPRPRPNCIPRP | -0.342 |
| RRIRGRPPRLPRPRPRPSPQPRP | 0.826 |
| RRIRERPPRLPRPRPRPSYKPRP | -1.27 |
| RRIRHRPPRLPRPRPRPALSPRP | -0.257 |
| RRIRKRPPRLPRPRPRPIWNPRP | -0.0253 |
| RRIRWRPPRLPRPRPRPTRKPRP | -0.0294 |
| RRIRSRPPRLPRPRPRPGMYPRP | 0.0605 |
| RRIRMRPPRLPRPRPRPMYGPRP | 0.0383 |
| RRIRSRPPRLPRPRPRPRRPPRP | 0.364 |
| RRIRIRPPRLPRPRPRPHNRPRP | -0.573 |
| RRIRTRPPRLPRPRPRPTKHPRP | -0.258 |
| RRIRQRPPRLPRPRPRPRFLPRP | -0.0439 |
| RRIRHRPPRLPRPRPRPRDMPRP | 0.137 |
| RRIRFRPPRLPRPRPRPAMIPRP | -0.397 |
| RRIRWRPPRLPRPRPRPVGHPRP | 0.243 |
| RRIRKRPPRLPRPRPRPHTMPRP | 0.205 |
| RRIRNRPPRLPRPRPRPDHRPRP | -0.0124 |
| RRIRIRPPRLPRPRPRPDYNPRP | -0.998 |
| RRIRFRPPRLPRPRPRPSRFPRP | -0.0395 |
| RRIRGRPPRLPRPRPRPTPYPRP | 0.324 |

| Sequence | shrunken log2 fold change |
| --- | --- |
| RRIRGRPPRLPRPRPRPRQCPRP | 0.216 |
| RRIRSRPPRLPRPRPRPDEPPRP | 0.0784 |
| RRIRQRPPRLPRPRPRPTWFPRP | 0.104 |
| RRIRCRPPRLPRPRPRPNYQPRP | -0.212 |
| RRIRQRPPRLPRPRPRPYMNPRP | -0.155 |
| RRIRGRPPRLPRPRPRPFCCPRP | 0.522 |
| RRIRARPPRLPRPRPRPNCNPRP | -0.116 |
| RRIRIRPPRLPRPRPRPLSAPRP | -0.112 |
| RRIRNRPPRLPRPRPRPEDRPRP | 0.0787 |
| RRIRHRPPRLPRPRPRPRWPPRP | 2.25 |
| RRIRGRPPRLPRPRPRPQRSPRP | 0.16 |
| RRIRQRPPRLPRPRPRPYYHPRP | -0.413 |
| RRIRRRPPRLPRPRPRPFGYPRP | -0.018 |
| RRIRYRPPRLPRPRPRPRVDPRP | -0.531 |
| RRIRERPPRLPRPRPRPPVCPRP | -0.119 |
| RRIRKRPPRLPRPRPRPWQCPRP | -0.00136 |
| RRIRGRPPRLPRPRPRPPAKPRP | 1.48 |
| RRIRDRPPRLPRPRPRPCGGPRP | 0.132 |
| RRIRMRPPRLPRPRPRPPRNPRP | 1.27 |
| RRIRDRPPRLPRPRPRPNSFPRP | -0.0585 |
| RRIRYRPPRLPRPRPRPGQSPRP | -0.108 |
| RRIRWRPPRLPRPRPRPIGPPRP | -0.0272 |

| Sequence | shrunken log2 fold change |
| --- | --- |
| RRIRSRPPRLPRPRPRPQDRPRP | -0.0318 |
| RRIRFRPPRLPRPRPRPPDFPRP | -0.195 |
| RRIRTRPPRLPRPRPRPCKCPRP | -1.16 |
| RRIRVRPPRLPRPRPRPQYMPRP | -0.554 |
| RRIRDRPPRLPRPRPRPFIHPRP | -0.572 |
| RRIRRRPPRLPRPRPRPQCTPRP | -0.122 |
| RRIRDRPPRLPRPRPRPGTDPRP | 0.341 |
| RRIRSRPPRLPRPRPRPRHEPRP | -0.0516 |
| RRIRCRPPRLPRPRPRPEWEPRP | -0.00663 |
| RRIRFRPPRLPRPRPRPTETPRP | -0.0161 |
| RRIRFRPPRLPRPRPRPEKGPRP | 0.0184 |
| RRIRIRPPRLPRPRPRPPYAPRP | -0.274 |
| RRIRRRPPRLPRPRPRPGWQPRP | 0.381 |
| RRIRTRPPRLPRPRPRPVCRPRP | 0.0309 |
| RRIRFRPPRLPRPRPRPAGNPRP | 0.135 |
| RRIRTRPPRLPRPRPRPRRGPRP | 0.604 |
| RRIRDRPPRLPRPRPRPSNPPRP | -0.281 |
| RRIRARPPRLPRPRPRPCYMPRP | -0.0886 |
| RRIRVRPPRLPRPRPRPMHRPRP | -0.0728 |
| RRIRPRPPRLPRPRPRPTGIPRP | 0.726 |
| RRIRIRPPRLPRPRPRPHTEPRP | 0.0578 |
| RRIRHRPPRLPRPRPRPPTQPRP | 0.137 |

| Sequence | shrunken log2 fold change |
| --- | --- |
| RRIRWRPPRLPRPRPRPGREPRP | 0.412 |
| RRIRARPPRLPRPRPRPVSTPRP | -0.0272 |
| RRIRRRPPRLPRPRPRPPEEPRP | 1.37 |
| RRIRKRPPRLPRPRPRPVHTPRP | 0.00666 |
| RRIRDRPPRLPRPRPRPVKYPRP | -0.346 |
| RRIRHRPPRLPRPRPRPMCIPRP | -0.162 |
| RRIRGRPPRLPRPRPRPNNVPRP | -0.131 |
| RRIRDRPPRLPRPRPRPFSIPRP | 0.0044 |
| RRIRMRPPRLPRPRPRPFLPPRP | -0.346 |
| RRIRQRPPRLPRPRPRPTEVPRP | -0.018 |
| RRIRARPPRLPRPRPRPWTRPRP | 0.27 |
| RRIRNRPPRLPRPRPRPDVMPRP | -0.275 |
| RRIRNRPPRLPRPRPRPHNYPRP | -0.968 |
| RRIRPRPPRLPRPRPRPKGWPRP | 1.22 |
| RRIRARPPRLPRPRPRPLMVPRP | 0.0926 |
| RRIRWRPPRLPRPRPRPNLVPRP | -0.0198 |
| RRIRSRPPRLPRPRPRPILHPRP | -0.159 |
| RRIRGRPPRLPRPRPRPYRSPRP | -0.113 |
| RRIRWRPPRLPRPRPRPSDQPRP | 0.138 |
| RRIRWRPPRLPRPRPRPFPMPRP | -0.111 |
| RRIRMRPPRLPRPRPRPGWQPRP | -0.032 |
